Data on 3 molecules can be found in publication PMC5387736, “SnoN Stabilizes the SMAD3/SMAD4 Protein Complex” (Scientific Reports, 2017).

The chains are these.
B1: SnoN SAND-domain (T238-S356) with C-terminal biotinylation sequence (domain or fragment, UniProt P12757-1 238-356, looked up)
chain: TFPQNGSVLPAKSSLAQLKETGSAFEVEHECLGKCQGLFAPQFYVQPDAPCIQCLECCGMFAPQTFVMHSHRSPDKRTCHWGFESAKWHCYLHVNQKYLGTPEEKKLKIILEEMKEKFS
notes: SnoN, SAND domain, residues T238-S356; Cloned in pNicBio3 for the SPR analysis; In the SPR it was the analyte, SMAD4 was amine-coupled; also called SnoN (T238-S356)
B2: His-tagged MH2 domain of SMAD4 (I314-Q549) (domain or fragment, UniProt Q13485 314-549, looked up)
chain: ISNHPAPEYWCSIAYFEMDVQVGETFKVPSSCPIVTVDGYVDPSGGDRFCLGQLSNVHRTEAIERARLHIGKGVQLECKGEGDVWVRCLSDHAVFVQSYYLDREAGRAPGDAVHKIYPSAYIKVFDLRQCHRQMQQQAATAQAAAAAQAAAVAGNIPGPGSVGGIAPAISLSAAAGIGVDDLRRLCILRMSFVKGWGPDYPRQSIKETPCWIEIHLHRALQLLDEVLHTMPIADPQ
notes: SMAD4, MH2 domain, residues I314-Q549; Cloned in pNIC28Bsa4; also called ^HisSMAD4; not shown: His6, N-terminal, kept

For experiment [1], the target named is T1, SnoN (M1-S356), untagged (UniProt P12757-1 1-356).
T1 construct: Cloned in pNIC28Bsa4; the asterisk marks the TEV cut, so SM probably remains at the N-terminus after cleavage; also called truncated SnoN (M1-S356, 38.6 kDa); not shown: His6, N-terminal, cleaved
T1 sequence (looked up): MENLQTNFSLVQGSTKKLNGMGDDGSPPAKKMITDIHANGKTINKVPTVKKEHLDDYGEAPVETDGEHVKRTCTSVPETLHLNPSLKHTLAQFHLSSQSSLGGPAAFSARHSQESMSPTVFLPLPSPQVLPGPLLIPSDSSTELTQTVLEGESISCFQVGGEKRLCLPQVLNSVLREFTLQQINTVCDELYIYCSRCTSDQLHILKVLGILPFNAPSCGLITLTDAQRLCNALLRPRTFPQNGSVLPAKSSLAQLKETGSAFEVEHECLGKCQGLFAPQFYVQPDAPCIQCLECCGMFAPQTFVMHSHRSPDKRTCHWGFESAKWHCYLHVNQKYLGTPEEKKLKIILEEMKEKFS
Put plainly: fluorescence labelling of cysteines (IRDye 800CW maleimide) and gel scanning; Ni-NTA eluate of the isolated SnoN-SMAD3-SMAD4 complex, boiled in 1% SDS, labelled, SDS-PAGE, near-infrared imaging; three measurements.

The target in experiment [2] is Strep II-tagged MH2 domain of SMAD3 (S423E, S425D), E145-D425. The experiment is described as follows: SEC; gel filtration of the single proteins in buffer A (Superdex 200 for SMAD4 and SnoN constructs, Sephacryl 300 for SMAD3); oligomeric state from the retention volume. (In gel filtration, larger molecules generally elute earlier.)
The target of experiment [3] is B2. The experiment is described as follows: SPR; BIAcore 2000; SMAD4 (I314-Q549) amine-coupled on CM5 (about 1300 RU); SnoN SAND domain 0-500 nM injected; 10 mM HEPES pH 7.4, 150 mM NaCl, 0.005% TWEEN-20, 0.5 mM TCEP; room temperature; one-step binding model. The following applies: both partners purified. Background: SPR reads the build-up and loss of mass on a sensor chip optically.

Experiment [4] concerns the target B2. Put plainly: crystal structure; SnoN SAND domain with SMAD4 MH2 domain, complex reconstituted 1:1; sitting drop, 2.8-3.3 M NaCl, 0.1 M Bis-Tris pH 5.5, 20 °C; 2.6 Å.

In general, stoichiometry N refers to the number of molecules, sites or subunits per partner or assembly. In experiment [1], “Strep II-tagged MH2 domain of SMAD3 (S423E, S425D), E145-D425 (domain or fragment)” came in with a stoichiometry N (SMAD3 per SnoN) of 2.1. The same molecule displayed a stoichiometry N in experiment [2] of 3.

As usually defined, the Kd is the concentration at which binding is half-saturated. As usually defined, the koff is a measure of how fast the partners let go of each other. High values mean fast dissociation, low ones slow dissociation. As a reminder, the kon is the rate constant with which the complex forms. A high value points to faster complex formation. In the case of B1, in experiment [3], the Kd was determined as 1100 nM, the koff amounted to 0.129 s⁻¹ and the kon was found to be 120000 M⁻¹ s⁻¹.

In the case of B2, the stoichiometry N stood at 3 in experiment [4] and 1.2 SMAD4 per SnoN in experiment [1] (both partners purified).
